# Test results published in patent US20170158747A1.
# Tests used:
# Test in all cases: cell-based or functional assay
# [1] = molecular target: human IL10 receptor (IL10R1/R2 receptor complex) on human whole blood cells (human) (UniProt Q13651)
# [2] = molecular target: mouse IL10 receptor on mouse cells (whole blood, colon) (mouse) (UniProt Q61727)
# [3] = molecular target: cynomolgus monkey IL10 receptor on cynomolgus whole blood cells (cynomolgus monkey)
# Chain of human IL10 receptor (IL10R1/R2 receptor complex) on human whole blood cells (human) (Q13651 22-578, chain 1 of 2): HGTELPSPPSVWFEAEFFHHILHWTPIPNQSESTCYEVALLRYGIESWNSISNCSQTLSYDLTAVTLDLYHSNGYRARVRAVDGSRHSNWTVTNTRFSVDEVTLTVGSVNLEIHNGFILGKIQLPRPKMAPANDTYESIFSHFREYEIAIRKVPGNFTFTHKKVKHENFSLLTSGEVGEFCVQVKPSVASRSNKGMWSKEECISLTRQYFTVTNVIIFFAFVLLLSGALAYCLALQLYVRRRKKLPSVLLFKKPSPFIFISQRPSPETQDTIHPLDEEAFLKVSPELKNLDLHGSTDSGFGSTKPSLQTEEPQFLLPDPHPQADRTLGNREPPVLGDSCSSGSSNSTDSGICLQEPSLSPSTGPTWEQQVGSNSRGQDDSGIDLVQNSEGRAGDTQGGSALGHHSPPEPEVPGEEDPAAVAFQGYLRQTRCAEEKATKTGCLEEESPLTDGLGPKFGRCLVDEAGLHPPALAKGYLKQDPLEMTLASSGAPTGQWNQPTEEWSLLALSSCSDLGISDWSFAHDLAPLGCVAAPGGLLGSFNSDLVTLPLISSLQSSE
# Chain of human IL10 receptor (IL10R1/R2 receptor complex) on human whole blood cells (human) (Q08334 20-325, chain 2 of 2, further chain): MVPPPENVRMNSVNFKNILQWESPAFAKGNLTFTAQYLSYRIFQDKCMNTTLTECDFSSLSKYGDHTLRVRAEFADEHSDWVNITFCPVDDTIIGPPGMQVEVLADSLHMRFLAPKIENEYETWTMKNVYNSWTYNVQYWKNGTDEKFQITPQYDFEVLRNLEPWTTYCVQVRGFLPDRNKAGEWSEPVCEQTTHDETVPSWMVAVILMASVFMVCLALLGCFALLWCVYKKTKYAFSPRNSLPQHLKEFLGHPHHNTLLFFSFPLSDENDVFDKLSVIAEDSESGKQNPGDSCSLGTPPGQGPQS
# Chain of mouse IL10 receptor on mouse cells (whole blood, colon) (mouse) (Q61727 17-575, chain 1 of 2): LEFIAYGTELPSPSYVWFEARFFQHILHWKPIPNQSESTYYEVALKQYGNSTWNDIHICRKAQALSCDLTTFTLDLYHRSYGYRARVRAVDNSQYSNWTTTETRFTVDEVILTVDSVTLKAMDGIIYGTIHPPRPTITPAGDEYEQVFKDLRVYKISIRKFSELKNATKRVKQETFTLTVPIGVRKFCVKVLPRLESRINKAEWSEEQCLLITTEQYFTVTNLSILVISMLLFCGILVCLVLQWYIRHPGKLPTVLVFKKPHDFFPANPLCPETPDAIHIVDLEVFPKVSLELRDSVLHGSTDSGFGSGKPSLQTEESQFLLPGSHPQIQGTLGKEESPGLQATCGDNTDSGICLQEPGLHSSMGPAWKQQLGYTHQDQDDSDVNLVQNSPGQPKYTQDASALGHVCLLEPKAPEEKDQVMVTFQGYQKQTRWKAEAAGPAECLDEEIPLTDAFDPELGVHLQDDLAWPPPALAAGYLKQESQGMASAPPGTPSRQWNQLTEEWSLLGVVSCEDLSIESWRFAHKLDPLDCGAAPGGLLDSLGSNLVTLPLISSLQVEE
# Chain of mouse IL10 receptor on mouse cells (whole blood, colon) (mouse) (Q61190 20-349, chain 2 of 2, further chain): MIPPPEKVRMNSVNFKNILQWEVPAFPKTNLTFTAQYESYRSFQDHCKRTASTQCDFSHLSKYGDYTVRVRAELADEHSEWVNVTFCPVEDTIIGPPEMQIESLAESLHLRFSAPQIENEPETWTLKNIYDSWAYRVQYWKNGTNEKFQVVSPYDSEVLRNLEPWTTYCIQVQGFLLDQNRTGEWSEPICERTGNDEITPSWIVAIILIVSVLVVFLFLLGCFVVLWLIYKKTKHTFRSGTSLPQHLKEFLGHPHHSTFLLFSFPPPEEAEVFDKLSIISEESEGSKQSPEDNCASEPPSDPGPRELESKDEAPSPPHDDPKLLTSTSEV
substance,measurement,setting,value
recombinant human IL10 (from UniProt P22301 19-178) (ligand),"IC30, inhibition of LPS-induced TNFα production, ex vivo human whole blood",[1],1.3 pM
same,"IC50, inhibition of LPS-induced TNFα production, ex vivo human whole blood",[1],2.8 pM
same,"IC90, inhibition of LPS-induced TNFα production, ex vivo human whole blood",[1],22.8 pM
same,"IC30, inhibition of LPS-induced TNFα production, ex vivo mouse whole blood",[2],0.57 pM
same,"IC50, inhibition of LPS-induced TNFα production, ex vivo mouse whole blood",[2],1.7 pM
same,"IC90, inhibition of LPS-induced TNFα production, ex vivo mouse whole blood",[2],15 pM
same,"IC30, inhibition of LPS-induced TNFα production, ex vivo cynomolgus whole blood",[3],0.44 pM
same,"IC50, inhibition of LPS-induced TNFα production, ex vivo cynomolgus whole blood",[3],0.65 pM
same,"IC90, inhibition of LPS-induced TNFα production, ex vivo cynomolgus whole blood",[3],1.9 pM
